This passage reports abundance fitness results from the Human Domainome abundance scans (Beltran et al. 2025).

The chains are these.
B1: Nucleolar transcription factor 1, residues 408 to 469; numbered along this chain, P17480 (parent)
chain: KRPVSAMFIFSEEKRRQLQEERPELSESELTRLLARMWNDLSEKKKAKYKAREAALKAQSER

± gives the uncertainty stated by the source.

In the data set the parent is B1. The experiment in a line: abundance fitness (aPCA) (normalised: wild type 0, dead -1); higher = more abundant; growth selection in yeast, the domain comes from the species named. As to conditions: Homo sapiens.
With KRPVSAMFICSEEKRRQLQEERPELSESELTRLLARMWNDLSEKKKAKYKAREAALKAQSER [F10C], the abundance fitness was -1.04 ± 0.17.

For KRPVSAMFISSEEKRRQLQEERPELSESELTRLLARMWNDLSEKKKAKYKAREAALKAQSER [F10S], the abundance fitness is -0.648 ± 0.061.

With KRPVSAMFIKSEEKRRQLQEERPELSESELTRLLARMWNDLSEKKKAKYKAREAALKAQSER [F10K], the abundance fitness was -0.857 ± 0.1.

Regarding KRPVSAMFIQSEEKRRQLQEERPELSESELTRLLARMWNDLSEKKKAKYKAREAALKAQSER [F10Q], the abundance fitness was -0.82 ± 0.072.

Take KRPVSAMFIGSEEKRRQLQEERPELSESELTRLLARMWNDLSEKKKAKYKAREAALKAQSER [F10G]: the abundance fitness is -0.683 ± 0.055.

In the case of KRPVSAMFIYSEEKRRQLQEERPELSESELTRLLARMWNDLSEKKKAKYKAREAALKAQSER [F10Y], the abundance fitness was found to be 0.039 ± 0.28.

On to KRPVSAMFIPSEEKRRQLQEERPELSESELTRLLARMWNDLSEKKKAKYKAREAALKAQSER [F10P], for which the abundance fitness was -0.677 ± 0.089.

For the variant KRPVSAMFITSEEKRRQLQEERPELSESELTRLLARMWNDLSEKKKAKYKAREAALKAQSER [F10T], the abundance fitness is -0.751 ± 0.087.

As to KRPVSAMFIASEEKRRQLQEERPELSESELTRLLARMWNDLSEKKKAKYKAREAALKAQSER [F10A], the abundance fitness is -0.829 ± 0.067.

Consider KRPVSAMFIRSEEKRRQLQEERPELSESELTRLLARMWNDLSEKKKAKYKAREAALKAQSER [F10R], for which the abundance fitness is -0.88 ± 0.058.

KRPVSAMFIISEEKRRQLQEERPELSESELTRLLARMWNDLSEKKKAKYKAREAALKAQSER [F10I]: the abundance fitness was -0.948 ± 0.11.

For the variant KRPVSAMFIVSEEKRRQLQEERPELSESELTRLLARMWNDLSEKKKAKYKAREAALKAQSER [F10V], the abundance fitness was -1.09 ± 0.07.

KRPVSAMFIMSEEKRRQLQEERPELSESELTRLLARMWNDLSEKKKAKYKAREAALKAQSER [F10M]: the abundance fitness was -0.522 ± 0.077.

Regarding KRPVSAMFIHSEEKRRQLQEERPELSESELTRLLARMWNDLSEKKKAKYKAREAALKAQSER [F10H], the abundance fitness was -0.258 ± 0.47.

As for KRPVSAMFIDSEEKRRQLQEERPELSESELTRLLARMWNDLSEKKKAKYKAREAALKAQSER [F10D], the abundance fitness was -1.01 ± 0.38.

For the variant KRPVSAMFINSEEKRRQLQEERPELSESELTRLLARMWNDLSEKKKAKYKAREAALKAQSER [F10N], the abundance fitness was -0.562 ± 0.21.

In the case of KRPVSAMFIESEEKRRQLQEERPELSESELTRLLARMWNDLSEKKKAKYKAREAALKAQSER [F10E], the abundance fitness is -0.875 ± 0.084.

Take KRPVSAMFILSEEKRRQLQEERPELSESELTRLLARMWNDLSEKKKAKYKAREAALKAQSER [F10L]: the abundance fitness is -0.731 ± 0.071.

On to KRPVSAMFIWSEEKRRQLQEERPELSESELTRLLARMWNDLSEKKKAKYKAREAALKAQSER [F10W], for which the abundance fitness is -0.075 ± 0.062.

KRPVSAMFIFYEEKRRQLQEERPELSESELTRLLARMWNDLSEKKKAKYKAREAALKAQSER [S11Y]: the abundance fitness was found to be 0.011 ± 0.073.

As for KRPVSAMFIFHEEKRRQLQEERPELSESELTRLLARMWNDLSEKKKAKYKAREAALKAQSER [S11H], the abundance fitness was -0.146 ± 0.18.

Consider KRPVSAMFIFCEEKRRQLQEERPELSESELTRLLARMWNDLSEKKKAKYKAREAALKAQSER [S11C], for which the abundance fitness was -0.102 ± 0.12.

KRPVSAMFIFAEEKRRQLQEERPELSESELTRLLARMWNDLSEKKKAKYKAREAALKAQSER [S11A]: the abundance fitness was -0.07 ± 0.081.

As to KRPVSAMFIFQEEKRRQLQEERPELSESELTRLLARMWNDLSEKKKAKYKAREAALKAQSER [S11Q], the abundance fitness is -0.027 ± 0.073.

Consider KRPVSAMFIFTEEKRRQLQEERPELSESELTRLLARMWNDLSEKKKAKYKAREAALKAQSER [S11T], for which the abundance fitness is -0.013 ± 0.05.

For the variant KRPVSAMFIFLEEKRRQLQEERPELSESELTRLLARMWNDLSEKKKAKYKAREAALKAQSER [S11L], the abundance fitness is -0.049 ± 0.049.

On to KRPVSAMFIFREEKRRQLQEERPELSESELTRLLARMWNDLSEKKKAKYKAREAALKAQSER [S11R], for which the abundance fitness was -0.13 ± 0.043.

With KRPVSAMFIFFEEKRRQLQEERPELSESELTRLLARMWNDLSEKKKAKYKAREAALKAQSER [S11F], the abundance fitness was -0.029 ± 0.066.

Turning to KRPVSAMFIFMEEKRRQLQEERPELSESELTRLLARMWNDLSEKKKAKYKAREAALKAQSER [S11M], the abundance fitness is 0.093 ± 0.06.

With KRPVSAMFIFVEEKRRQLQEERPELSESELTRLLARMWNDLSEKKKAKYKAREAALKAQSER [S11V], the abundance fitness came to 0.024 ± 0.049.

Regarding KRPVSAMFIFPEEKRRQLQEERPELSESELTRLLARMWNDLSEKKKAKYKAREAALKAQSER [S11P], the abundance fitness is -1.16 ± 0.11.

Take KRPVSAMFIFGEEKRRQLQEERPELSESELTRLLARMWNDLSEKKKAKYKAREAALKAQSER [S11G]: the abundance fitness was -0.028 ± 0.043.

Regarding KRPVSAMFIFEEEKRRQLQEERPELSESELTRLLARMWNDLSEKKKAKYKAREAALKAQSER [S11E], the abundance fitness is -0.023 ± 0.067.

For KRPVSAMFIFWEEKRRQLQEERPELSESELTRLLARMWNDLSEKKKAKYKAREAALKAQSER [S11W], the abundance fitness was -0.08 ± 0.056.

KRPVSAMFYFSEEKRRQLQEERPELSESELTRLLARMWNDLSEKKKAKYKAREAALKAQSER [I9Y]: the abundance fitness is -0.181 ± 0.1.

Consider KRPVSAMFVFSEEKRRQLQEERPELSESELTRLLARMWNDLSEKKKAKYKAREAALKAQSER [I9V], for which the abundance fitness was -0.131 ± 0.058.

KRPVSAMFTFSEEKRRQLQEERPELSESELTRLLARMWNDLSEKKKAKYKAREAALKAQSER [I9T]: the abundance fitness was -0.217 ± 0.074.

As for KRPVSAMFIFSEEDRRQLQEERPELSESELTRLLARMWNDLSEKKKAKYKAREAALKAQSER [K14D], the abundance fitness is -0.729 ± 0.085.

For KRPVSAMFIFSEEIRRQLQEERPELSESELTRLLARMWNDLSEKKKAKYKAREAALKAQSER [K14I], the abundance fitness is -0.085 ± 0.15.

On to KRPVSAMFIFSEEERRQLQEERPELSESELTRLLARMWNDLSEKKKAKYKAREAALKAQSER [K14E], for which the abundance fitness is -0.229 ± 0.079.

In the case of KRPVSAMFIFSEEARRQLQEERPELSESELTRLLARMWNDLSEKKKAKYKAREAALKAQSER [K14A], the abundance fitness is -0.057 ± 0.061.

For KRPVSAMFIFSEECRRQLQEERPELSESELTRLLARMWNDLSEKKKAKYKAREAALKAQSER [K14C], the abundance fitness was -0.319 ± 0.095.

In the case of KRPVSAMFIFSEEVRRQLQEERPELSESELTRLLARMWNDLSEKKKAKYKAREAALKAQSER [K14V], the abundance fitness was -0.07 ± 0.047.
